These results are taken from article PMC5714350.

Conditions in all cases: other: dynamic light scattering
Series [1] can be described thus: dynamic light scattering; FXN^81-210 with ferric iron (FeCl3 in HEPES pH 7.5), Fe3+:protein 6:1, 8:1, 10:1.
A short description of series [2]: dynamic light scattering; FXN^81-210 with Fe2+ 6:1 for 15 min, then chelator (deferiprone, DFO or BIPY) at 3 times the amount of iron; room temperature.
A short description of series [3]: dynamic light scattering; FXN^81-210 2.5 mg/ml (0.17 mM) with ammonium iron (II) sulfate, aerobic, Fe2+:protein 2:1, 4:1, 5:1, 6:1, 10:1; room temperature; profiles every 5 min for 2 h; volume distribution.

For the substance “Human frataxin isoform 81–210 (FXN^81-210)”, in series [1], the % of particles in the monomer range (hydrodynamic radius 1.6–3 nm), with iron (Fe3+ 6:1) came out at 97%; the % of particles with hydrodynamic radius 6–8.5 nm (oligomers), with iron (Fe3+ 8:1) is 84.4%; the % of particles with hydrodynamic radius 8.5–14 nm (oligomers), with iron (Fe3+ 6:1) came to 3%; the % of particles with hydrodynamic radius 8.5–14 nm (oligomers), with iron (Fe3+ 10:1) was 86.8%. Further, the % of particles with hydrodynamic radius 15–25 nm (oligomers), with iron (Fe3+ 8:1) in series [1] is 15.6%. Moreover, in series [2], the % of particles in the monomer range (hydrodynamic radius 1.6–2.1 nm), with iron (Fe2+ 6:1) and BIPY was 92%; the % of particles in the monomer range (hydrodynamic radius 1.6–2.1 nm), with iron (Fe2+ 6:1) and deferiprone was 97%; the % of particles with hydrodynamic radius 6–8.5 nm (oligomers), with iron (Fe2+ 6:1) and BIPY was found to be 8%; the % of particles with hydrodynamic radius 6–8.5 nm (oligomers), with iron (Fe2+ 6:1) and DFO is 95%. For the same substance, in series [2], the % of particles with hydrodynamic radius 8.5–14 nm (oligomers), with iron (Fe2+ 6:1) and deferiprone was 3%; the % of particles with hydrodynamic radius 15–25 nm (oligomers), with iron (Fe2+ 6:1) and DFO turned out to be 5%. Besides, in series [3], the % of particles in the monomer range (hydrodynamic radius 1.6–2.1 nm), with iron (Fe2+ 6:1) came to 92%; the % of particles with hydrodynamic radius 6–8.5 nm (oligomers), with iron (Fe2+ 6:1) came to 8%; the “% of particles with mean hydrodynamic radius of about 5 nm (oligomers), with iron (Fe2+ 10:1, 60 min)” value is “The major fraction of the oligomers (88%)”.
